This note sets out measurements from patent US20240261333A1, “NOVEL TARGETS FOR ENHANCING ANTI-TUMOR IMMUNITY” (THE BROAD INSTITUTE, INC., priority 2021, published 2024).

For one assay, the target named is PCMT1 (UniProt P22061). In words: co-IP with mouse IgG control, mass spectrometry; lysate of C-FLAG B3GNT2 cells.
A further assay addresses SPRR2E (UniProt P22531). The assay is described as above.
In the next assay the target is RPL31 (UniProt P62899). Described as above.
Another assay deals with SSR1 (UniProt P43307). Described as above.
The target in the next assay is ATXN2L (UniProt Q8WWM7). The description is as above.
A further assay has as its target ACTR3 (UniProt P61158). The description is as above.
The target in the next assay is RPL36A (UniProt P83881). Described as above.
The next assay concerns the target LTF (UniProt P02788). Described as above.
The target in the next assay is RPL10A (UniProt P62906). The description is as above.
The next assay deals with YBX3 (UniProt P16989). The assay is described as above.
The target in the next assay is UBA52 (UniProt P62987). The assay is described as above.
Another assay deals with HNRNPA1 (UniProt P09651). The assay is described as above.
The target of another assay is SERPINB12 (UniProt Q96P63). The assay is described as above.
For another assay, the target named is RPS11 (UniProt P62280). The description is as above.
A further assay concerns the target SLIRP (UniProt Q9GZT3). The description is as above.
In another assay the target is HNRNPF (UniProt P52597). Described as above.
The target of another assay is TPI1 (UniProt P60174). Described as above.
The target of the next assay is TRIM21 (UniProt P19474). Described as above.
The next assay concerns the target RCC2 (UniProt Q9P258). Described as above.
The target in a further assay is AHNAK (UniProt Q09666). The assay is described as above.
A further assay has as its target RPS17 (UniProt P08708). The assay is described as above.
The target of a further assay is S100A9 (UniProt P06702). The description is as above.
In another assay the target is EEF1A1 (UniProt P68104). The description is as above.
The target in another assay is MMP14 (human) (UniProt P50281). Kind of assay: co-IP with anti-FLAG, N-FLAG B3GNT2, mass spectrometry.
The next assay concerns the target RPL17 (human) (UniProt P18621). Described as above.
Assay [1] deals with P0AA25.2 [thioredoxin: P0AA25]. The assay is described as above.
In another assay the target is HBB (human) (UniProt P68871). Described as above.
Another assay addresses RACK1 (human) (UniProt P63244). Described as above.
The target of the next assay is RPL7 (human) (UniProt P18124). The assay is described as above.
Another assay deals with PPFIBP1 (human) (UniProt Q86W92). The description is as above.
The next assay concerns the target RHOT2 (human) (UniProt Q8IXI1). The description is as above.
The target in the next assay is CPT1A (human) (UniProt P50416). The description is as above.
In another assay the target is XPO1 (human) (UniProt O14980). The assay is described as above.
The target of the next assay is SERPINB3 (human) (UniProt P29508). The description is as above.
For another assay, the target named is XPOT (human) (UniProt O43592). The description is as above.
A further assay concerns the target KCTD5 (human) (UniProt Q9NXV2). The description is as above.
The target of another assay is PSMB5 (human) (UniProt P28074). The assay is described as above.
For the next assay, the target named is TELO2 (human) (UniProt Q9Y4R8). Described as above.
Another assay has as its target LUC7L3 (human) (UniProt O95232). The assay is described as above.

SERPINB3 (human), sequence (P29508 whole entry): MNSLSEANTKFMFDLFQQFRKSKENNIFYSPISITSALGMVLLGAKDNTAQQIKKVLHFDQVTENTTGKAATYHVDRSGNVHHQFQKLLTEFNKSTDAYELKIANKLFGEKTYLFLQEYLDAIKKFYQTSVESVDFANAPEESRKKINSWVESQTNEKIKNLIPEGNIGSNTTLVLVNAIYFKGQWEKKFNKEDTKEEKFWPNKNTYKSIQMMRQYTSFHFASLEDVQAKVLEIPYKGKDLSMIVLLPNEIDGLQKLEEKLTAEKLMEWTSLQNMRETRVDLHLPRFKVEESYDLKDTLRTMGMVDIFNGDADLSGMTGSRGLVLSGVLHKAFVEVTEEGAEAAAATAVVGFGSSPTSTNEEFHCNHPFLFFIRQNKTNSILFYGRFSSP
LTF, sequence (P02788 20-710 limits assumed): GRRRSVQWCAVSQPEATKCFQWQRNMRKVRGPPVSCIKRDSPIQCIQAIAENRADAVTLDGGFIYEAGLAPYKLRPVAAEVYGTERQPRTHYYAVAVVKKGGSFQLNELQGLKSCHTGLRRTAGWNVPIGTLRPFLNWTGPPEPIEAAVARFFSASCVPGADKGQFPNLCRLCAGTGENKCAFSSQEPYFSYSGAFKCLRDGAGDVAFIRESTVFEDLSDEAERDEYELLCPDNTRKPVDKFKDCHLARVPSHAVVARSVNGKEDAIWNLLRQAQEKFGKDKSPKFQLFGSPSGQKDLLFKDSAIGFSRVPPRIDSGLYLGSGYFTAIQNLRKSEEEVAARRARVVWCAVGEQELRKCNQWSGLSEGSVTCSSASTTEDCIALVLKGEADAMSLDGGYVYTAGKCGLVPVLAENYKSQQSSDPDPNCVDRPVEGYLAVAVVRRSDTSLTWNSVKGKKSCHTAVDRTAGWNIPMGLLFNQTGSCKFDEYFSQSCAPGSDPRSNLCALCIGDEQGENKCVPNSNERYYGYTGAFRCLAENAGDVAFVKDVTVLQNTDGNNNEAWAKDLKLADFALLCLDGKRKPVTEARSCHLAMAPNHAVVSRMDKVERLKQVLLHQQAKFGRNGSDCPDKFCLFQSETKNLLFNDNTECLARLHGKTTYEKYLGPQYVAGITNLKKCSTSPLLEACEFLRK
PSMB5 (human), sequence (P28074 60-263 limits assumed): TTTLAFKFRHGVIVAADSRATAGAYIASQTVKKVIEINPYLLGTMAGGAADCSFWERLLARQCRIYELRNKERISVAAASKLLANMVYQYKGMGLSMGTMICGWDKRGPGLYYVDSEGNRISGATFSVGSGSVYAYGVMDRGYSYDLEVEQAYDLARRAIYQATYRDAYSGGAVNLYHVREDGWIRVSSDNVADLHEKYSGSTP
SSR1, sequence (P43307 19-286 limits assumed): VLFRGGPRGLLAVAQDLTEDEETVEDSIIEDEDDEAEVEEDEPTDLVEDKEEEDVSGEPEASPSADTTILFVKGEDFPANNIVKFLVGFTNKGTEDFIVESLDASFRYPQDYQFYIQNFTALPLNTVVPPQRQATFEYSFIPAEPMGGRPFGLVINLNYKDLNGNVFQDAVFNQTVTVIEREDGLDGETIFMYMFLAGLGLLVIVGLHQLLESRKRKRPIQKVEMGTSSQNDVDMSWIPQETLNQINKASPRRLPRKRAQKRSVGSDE
PPFIBP1 (human), sequence (Q86W92 other isoform, or with tags, fused parts or gaps limits assumed): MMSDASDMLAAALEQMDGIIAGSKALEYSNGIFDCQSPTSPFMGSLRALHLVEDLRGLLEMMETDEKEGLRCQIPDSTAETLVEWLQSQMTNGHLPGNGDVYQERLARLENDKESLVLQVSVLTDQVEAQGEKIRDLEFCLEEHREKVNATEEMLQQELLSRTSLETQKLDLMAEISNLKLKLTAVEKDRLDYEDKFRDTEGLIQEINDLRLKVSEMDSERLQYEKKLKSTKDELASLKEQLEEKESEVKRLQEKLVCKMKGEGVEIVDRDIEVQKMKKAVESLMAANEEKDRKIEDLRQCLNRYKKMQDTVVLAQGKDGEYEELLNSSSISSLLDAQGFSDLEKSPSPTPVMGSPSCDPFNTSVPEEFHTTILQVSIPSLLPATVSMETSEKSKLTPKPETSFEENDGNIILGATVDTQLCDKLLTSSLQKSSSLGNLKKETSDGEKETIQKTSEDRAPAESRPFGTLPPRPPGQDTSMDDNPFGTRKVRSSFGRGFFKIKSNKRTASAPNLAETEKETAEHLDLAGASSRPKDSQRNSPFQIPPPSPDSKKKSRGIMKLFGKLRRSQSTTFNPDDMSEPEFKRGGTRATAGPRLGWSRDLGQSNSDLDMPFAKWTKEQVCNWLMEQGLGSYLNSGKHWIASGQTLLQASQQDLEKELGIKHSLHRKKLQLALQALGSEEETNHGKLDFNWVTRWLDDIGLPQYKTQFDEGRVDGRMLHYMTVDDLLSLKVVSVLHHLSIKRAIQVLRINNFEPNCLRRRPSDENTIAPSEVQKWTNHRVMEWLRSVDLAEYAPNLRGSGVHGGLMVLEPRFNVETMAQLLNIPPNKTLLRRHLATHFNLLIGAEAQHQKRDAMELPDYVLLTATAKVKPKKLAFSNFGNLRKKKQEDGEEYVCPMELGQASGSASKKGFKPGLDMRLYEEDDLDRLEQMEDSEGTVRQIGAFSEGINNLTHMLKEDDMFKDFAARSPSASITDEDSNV
SPRR2E, sequence (P22531 whole entry): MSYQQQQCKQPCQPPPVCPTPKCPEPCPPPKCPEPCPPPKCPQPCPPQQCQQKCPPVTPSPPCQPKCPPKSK
HNRNPF, sequence (P52597 2-415 limits assumed): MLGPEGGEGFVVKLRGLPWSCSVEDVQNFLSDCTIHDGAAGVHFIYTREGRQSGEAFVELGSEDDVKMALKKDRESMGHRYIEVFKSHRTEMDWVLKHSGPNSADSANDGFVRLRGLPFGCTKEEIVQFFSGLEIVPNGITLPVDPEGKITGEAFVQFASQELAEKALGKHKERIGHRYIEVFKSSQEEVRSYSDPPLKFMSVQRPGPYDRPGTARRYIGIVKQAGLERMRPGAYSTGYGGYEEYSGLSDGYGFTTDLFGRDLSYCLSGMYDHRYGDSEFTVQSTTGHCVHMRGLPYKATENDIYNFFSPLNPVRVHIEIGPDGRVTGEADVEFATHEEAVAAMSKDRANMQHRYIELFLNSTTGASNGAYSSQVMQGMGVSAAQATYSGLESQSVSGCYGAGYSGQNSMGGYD
XPOT (human), sequence (O43592 whole entry): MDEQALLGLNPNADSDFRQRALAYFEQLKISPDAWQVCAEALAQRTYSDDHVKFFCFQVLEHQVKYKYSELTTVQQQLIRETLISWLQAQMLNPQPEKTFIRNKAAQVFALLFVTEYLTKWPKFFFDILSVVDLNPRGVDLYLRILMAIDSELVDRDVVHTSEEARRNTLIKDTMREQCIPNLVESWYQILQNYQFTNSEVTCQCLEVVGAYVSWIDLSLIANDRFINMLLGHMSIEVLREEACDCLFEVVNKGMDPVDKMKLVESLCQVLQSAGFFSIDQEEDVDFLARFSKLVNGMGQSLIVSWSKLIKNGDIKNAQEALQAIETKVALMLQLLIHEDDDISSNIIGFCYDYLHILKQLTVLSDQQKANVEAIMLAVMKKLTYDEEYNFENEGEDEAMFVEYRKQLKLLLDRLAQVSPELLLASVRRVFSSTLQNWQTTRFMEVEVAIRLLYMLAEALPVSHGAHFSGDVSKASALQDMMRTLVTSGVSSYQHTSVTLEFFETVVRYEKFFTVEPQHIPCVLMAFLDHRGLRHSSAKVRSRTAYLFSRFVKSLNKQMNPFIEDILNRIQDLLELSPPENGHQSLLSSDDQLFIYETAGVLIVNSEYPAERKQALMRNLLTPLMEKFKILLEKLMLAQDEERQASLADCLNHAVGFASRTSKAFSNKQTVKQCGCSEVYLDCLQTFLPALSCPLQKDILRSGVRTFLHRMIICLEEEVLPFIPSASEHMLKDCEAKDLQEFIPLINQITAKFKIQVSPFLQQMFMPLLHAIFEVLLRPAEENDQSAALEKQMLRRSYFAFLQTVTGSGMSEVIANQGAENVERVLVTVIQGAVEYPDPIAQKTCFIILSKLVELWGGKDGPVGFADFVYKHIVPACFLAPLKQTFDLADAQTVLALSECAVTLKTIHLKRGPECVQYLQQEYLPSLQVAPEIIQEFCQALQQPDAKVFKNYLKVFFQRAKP
EEF1A1, sequence (P68104 2-462 limits assumed): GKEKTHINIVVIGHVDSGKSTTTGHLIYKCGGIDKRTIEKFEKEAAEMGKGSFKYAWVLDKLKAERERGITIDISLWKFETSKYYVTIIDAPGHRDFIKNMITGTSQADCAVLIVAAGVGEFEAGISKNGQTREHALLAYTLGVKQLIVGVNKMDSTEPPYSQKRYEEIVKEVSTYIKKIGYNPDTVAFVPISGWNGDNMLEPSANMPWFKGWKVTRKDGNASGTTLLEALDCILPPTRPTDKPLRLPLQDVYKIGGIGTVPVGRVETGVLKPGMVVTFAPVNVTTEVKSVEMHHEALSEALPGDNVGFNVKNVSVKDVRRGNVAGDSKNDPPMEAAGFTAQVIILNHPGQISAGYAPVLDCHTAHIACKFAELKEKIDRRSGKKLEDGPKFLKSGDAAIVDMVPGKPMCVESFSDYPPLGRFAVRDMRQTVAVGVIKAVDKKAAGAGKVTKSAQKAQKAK
RCC2, sequence (Q9P258 whole entry): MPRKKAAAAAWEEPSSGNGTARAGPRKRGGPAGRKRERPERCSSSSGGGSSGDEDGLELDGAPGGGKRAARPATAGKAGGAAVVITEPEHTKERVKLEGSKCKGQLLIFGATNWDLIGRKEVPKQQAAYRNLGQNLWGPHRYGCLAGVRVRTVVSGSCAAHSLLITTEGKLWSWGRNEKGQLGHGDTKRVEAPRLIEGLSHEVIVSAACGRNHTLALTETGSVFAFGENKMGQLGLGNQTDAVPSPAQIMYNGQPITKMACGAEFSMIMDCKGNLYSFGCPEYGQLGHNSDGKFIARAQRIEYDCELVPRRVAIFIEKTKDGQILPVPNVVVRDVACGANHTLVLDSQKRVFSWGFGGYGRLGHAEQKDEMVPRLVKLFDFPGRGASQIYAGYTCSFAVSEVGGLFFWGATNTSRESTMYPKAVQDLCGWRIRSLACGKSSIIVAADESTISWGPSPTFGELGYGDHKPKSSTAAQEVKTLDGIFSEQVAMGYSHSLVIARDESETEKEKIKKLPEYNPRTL

With “IgG control (Millipore Sigma 12-371) (antibody)”, the co-IP mass spectrometry count with PCMT1 was 0; with SPRR2E it was 5; in the assay with RPL31 it was 0; with SSR1, 0; with ATXN2L, 2; with ACTR3 it was 2. Further, the co-IP mass spectrometry count in the assay with RPL36A was 0; with LTF it was 2; with RPL10A it was 0; with YBX3 it was 0; with UBA52, 7; with HNRNPA1, 4. In addition, the co-IP mass spectrometry count with SERPINB12 stood at 0; with RPS11 it was 9; in the assay with SLIRP, 0; with HNRNPF it was 3; in the assay with TPI1, 0; with TRIM21, 0. Moreover, the co-IP mass spectrometry count with RCC2 was found to be 0; with AHNAK, 2; in the assay with RPS17, 5; with S100A9, 5; with EEF1A1, 5.

Regarding “N-terminal FLAG tagged B3GNT2 (from UniProt Q9NY97 1-397) (enzyme)”, the co-IP/MS count, N-term FLAG with MMP14 (human) worked out at 2; with RPL17 (human) it was 3; in assay [1] it was 7; in the assay with HBB (human), 4; with CPT1A (human) it was 2; in the assay with XPO1 (human), 2. In addition, the co-IP/MS count, N-term FLAG with XPOT (human) is 2; with PSMB5 (human), 4; in the assay with LUC7L3 (human), 4. In addition, the co-IP mass spectrometry count with RACK1 (human) is 2; with RPL7 (human), 10; with PPFIBP1 (human) it was 2; with RHOT2 (human) it was 3; with SERPINB3 (human) it was 10; in the assay with KCTD5 (human) it was 2. The co-IP mass spectrometry count in the assay with TELO2 (human) is 2.
